B1: Frizzled 6 (FZD6), wild type, expressed as V5-FZD6-mCherry and as FZD6-GFP [human] / Frizzled 6 (FZD6), wild type, expressed as V5-FZD6-mCherry and as FZD6-GFP [human] (parent)
chain 1: HSLFTCEPITVPRCMKMAYNMTFFPNLMGHYDQSIAAVEMEHFLPLANLECSPNIETFLCKAFVPTCIEQIHVVPPCRKLCEKVYSDCKKLIDTFGIRWPEELECDRLQYCDETVPVTFDPHTEFLGPQKKTEQVQRDIGFWCPRHLKTSGGQGYKFLGIDQCAPPCPNMYFKSDELEFAKSFIGTVSIFCLCATLFTFLTFLIDVRRFRYPERPIIYYSVCYSIVSLMYFIGFLLGDSTACNKADEKLELGDTVVLGSQNKACTVLFMLLYFFTMAGTVWWVILTITWFLAAGRKWSCEAIEQKAVWFHAVAWGTPGFLTVMLLAMNKVEGDNISGVCFVGLYDLDASRYFVLLPLCLCVFVGLSLLLAGIISLNHVRQVIQHDGRNQEKLKKFMIRIGVFSGLYLVPLVTLLGCYVYEQVNRITWEITWVSDHCRQYHIPCPYQAKAKARPELALFMIKYLMTLIVGISAVFWVGSKKTCTEWAGFFKRNRKRDPISESRRVLQESCEFFLKHNSKVKHKKKHYKPSSHKLKVISKSMGTSTGATANHGTSAVAITSHDYLGQETLTEIQTSPETSMREVKADGASTPRLREQDCGEPASPAASISRLSGEQVDGKGQAGSVSESARSEGRISPKSDITDTGLAQSNNLQVPSSSEPSSLKGSTSLLVHPVSGVRKEQGGGCHSDT
chain 2: B1 chain 1

Variants of: B1
Experiment: dcFRAP
Details: with Frizzled 6 (FZD6), GFP channel (FZD6-GFP dimer mutant), without CL (before biotin-anti-V5/avidin surface crosslinking of V5-FZD6-mCherry), N = 23 ROIs, read off a plot

Row | response (% of pre-bleach) | Variant
1 | 85 | chain 1 D347A R350A Y351A

Same assay, conditions: with Frizzled 6 (FZD6), GFP channel (FZD6-GFP dimer control mutant), without CL (before crosslinking of V5-FZD6-mCherry), N = 75 ROIs, read off a plot

Row | response (% of pre-bleach) | Variant
2 | 85 | chain 1 D347E R350K Y351F

From article PMC5548745, “Agonist-induced dimer dissociation as a macromolecular step in G protein-coupled receptor signaling” (Nature Communications, 2017)
